Results: patent publication US20230212267A1

Biological target: SARS-CoV-2 Spike protein on pseudovirus (wild type) (SARS-CoV-2) (UniProt P0DTC2)
Assay: cell-based or functional assay

In the case of “ACE2-Ig (positive control of the pseudovirus neutralization assay) (Fc fusion)”, the IC50, pseudovirus neutralization is reported as 0.9 µg/mL.
